In a protein production outcome set (Wang et al. 2014) one finds protein production data, which are given here for 33 sequences.

The data set is described as follows: label from the status in PepcDB records.

For “FAFVYEAQDVGSGREYALKRLLSNEEEKNRAIIQEVCFMKKLSGHPNIVQFCSAASIGKEESDTGQAEFLLLTELCKGQLVEFLKKMESRGPLSCDTVLKIFYQTCRAVQHMHRQKPPIIHRDLKVENLLLSNQGTIKLCDFGSATTISHYPDYSWSAQRRALVEEEITRNTTPMYRTPEIIDLYSNFPIGEKQDIWALGCILYLLCFRQHPFEDGAKLRIVNGKYSIPPHDTQYTVFHSLIRAMLQVNPEERLSIAEVVHQLQEIAAARNVNPKSPITELLEQNGGYGSAT”, the protein production result was “failed”.
Then “FEERSGVVPCGTPWGQWYQTLEEVFIEVQVPPGTRAQDIQCGLQSRHVALAVGGREILKGKLFDSTIADEGTWTLEDRKMVRIVLTKTKRDAANCWTSLLESEYAADPWVQDQMQRKLTLERFQKENPGFDFSGAEISGNYTKGGPDFSNLEKDGT”, with “not failed”.
Next, “FEPRSLITSDKGFVTMTLESLEEIQDVSCAWKELNRKLSSNAVSQITRMCLLKGNMGVCFDVPTTESERLQAEWHDSDWILSVPA”: “not failed”; “FGAEFSSEACRELGFSSNLLCSSCDLLGQFNLLQLDPDCRGCCQEEAQFETKKLYAGAILEVCGUKLGRFPQVQAFVRSDKPKLFRGLQIKYVRGSDPVLKLLDDNGNIAEELSILKWNTDSVEEFLSEKLERI”: “failed”.
Next, “FGLEGLPKHLKRIPLECLVEAKSYLRQYPQVDSERIGIYGRSKGAELVLAEESIFNDVQCLVLNSPSDVVDEGIIGKWNSHTSSWTHLQKELPYQKFRFRDYLFSKLFRKDFPKDCSARIDIGQMHSPILLLESTVDEIWDASSAIDDIVSHYKGHYITFKKYHETGHMLTVAYQPNHRYRKDWHLLMKESEDSWLATIHFFDRHLK”: “failed”; “FGNQKIFVCDARADWTNEFRTCSMFKNVHINRWYVITPSRNLRETQEFVQMCIRTASSMKMNICNPIYEEIPDDRNGTYSQAIDNAAANDPQIVMVVMRS”: “failed”.
Consider “FHPVYSVQLEQKLVEKFNLKRALISLDQPNTNEQRKQVAALVSSYLNNNLQEGMAVAVGQGQNVAAVADHAGIVTQRNARFVSAIGGTHRSGDIINADHICRRLAKKYGGSSETLYAPAYVNDPSLRSAFMEHATIKETLSQARKAEFALVGIGDMDENSHMVKLGFFTPKEFVEARLNDGIVGDIGGFDFFKLDGTDADTLMRGRVIGLEMEDLRQIPNVVAMASESRKALSIMGALRTGVIDVLATSVSCAMALLNLAENEE”, for which the protein production result was “not failed”.
As for “FLCMIPMFLYDFSSDKVIALIARILYFSDYFIVILFLIFIINSTKYSPFVLENVKRFKVMGCCLLINTIIECINGYNLNTNNIRIFGTDSGGISPLMVISFIFALMCFVIAETFDKAIKIKEDNDLTI”, the protein production entry was “failed”.
Take “FRLIGKHRLPRVDSAAKSDGSALYTQDMKLPGMLVAVVAHAPRLGAAVARVDDAAARAVPGVRAVVRFGGAALRHAGVAVLATNTWAARAGRDALRIEWDEGP”: the protein production entry is reported as “failed”.
Consider “FRPVMPSRQIVERQPRMLDFRVEYRDRNVDVVLEDTCTVGEIKQILENELQIPVSKMLLKGWKTGDVEDSTVLKSLHLPKNNSLYVLTPDL”, for which the protein production entry is on record as “failed”.
Then “GDIEQAAGHVVDGLSHLEVHPDVPDGIRALRERGFRLVTMTNGSSDLSKRLLGRAGLADCFESHLDASGPQRWKPAQAAYQYVVEQVGVRLDEAVLVAVHPWDVDGAQRAGLGGAWLRRDAADYPQVMLPPTYTVGNLRELAETLA”, with “failed”.
“GEKIFVRVTSVGRNNCRVDCYGIEYRVPINEIDYGYIDKVDKYVQVGDVVPAIIKELDIDNNIVVVSIKEAKEDPYLGIVKSLNKG”: the protein production entry is on record as “failed”.
Next, “GFAAYIWGSDFSFEVSAYAVAEREVPVADWVLRRIVPYRKCYGIDPEEFSSYRNAADSEIFMAYLDDQPVGHVVVSTNWNGYAHIDELAVHAPARRHGVARALLDVAQFWSRRKKLPGMMLETQNNNLGACRLYEQCGYVVGGVDHLRYRGIDPQTAEVAIFWYRLFANELE”: “failed”; “GGDTELSDSPTLPLNSILAGNCIEILKTLPDNSVDLIFADPPYNLQLSGELFRPEGSRVDAVNNAWDKFDTFAAYDHFTRLWLKEAHRVLKEDGTIWVIGSYHNIFRVGTALQDQGFWILNDIIWRKSNPMPNFKGRRFTNAHETLIWASKSDKSRYVFNYASLKTFNDDLQMRSDWLLPICSGNERLKGENGQKIHPTQKPEALLYRIILASSRPDDVILDPFFGTGTTGVIARHLRRHWIGIEQDPTYIKAAQARIDKAEVF”: “not failed”; “GGRAVARTLIQDVTERVRSRKKLEHYREYTDRLLDAIDDLFLVFDEEAKLTRWNDRVVEVTGYADEALGGMEALGFVPEEERERVASQIADGFMTGHAKMDIPLRRADGTTVPYEIAGNLVDRP”: “failed”.
Then “GGRGIIRLIKDNKSLTMKNTEVMLHGSSLAFDASTLEIYAALLNGACLSIIDKEDLIDSQTLKEKLKNDHVNRAFFTTPLFNSLCEQDPSVFNELEQVIIGGDRASNKHLKIVMKNSKKTQFYNGYGPTENTVFTTMHNIQYSELEGDIPIGKA”, with “failed”.
Then “GHHHHHHAIAENLYFQSSRNPEVLWAQRSDKVYLTVALPDAKDISVKCEPQGLFSFSALGAQGERFEFSLELYGKIMTEYRKNVGLRNIIFSIQKEERSWWTRLLKSEEKPAPYIKVDWNKWCDEDEEVNSETASDDESAFVNQDSESSDDDGLLYLPDLEKARNK”, with “failed”; and “GIHMGKIKRRAITEHEKRALRHYFFQLQNRSGQQDLIEWFREKFGKDISQPSVSQILSSKYSYLDNTVEKPWDVKRNRPPKYPLLEAALFEWQVQQGDDATLSGETIKRAAAILWHKIPEYQDQPVPNFSNGWLEGFRKRHILH”, with “not failed”; and “GIHYTSEKDIRQIVRPTIADYWEGKIDEATTYEDLEKLKQELREYRVLDPACGSGNFLYVAYQELKRLERVLLNKIYERRKRFQGEVLQQEEIGIVTPLQFFGMDTNPFAVQLARVTMMIARKIAIDKFGLTEPALPLDSLDQNIVCQDALFNDWPKADAIIGNPPFLGGSRVRLELGDKYVERIFEKFSDVKDKVDFCVYWFRLAHENLNKTGRAGLVGTNSISQGFSRRASLEYIVNNGGIIHDAISTQVWSGQANVHVSLVNWQYLKPPEYVLDHEIVKNINSSLKSETDVSNAVKLK”, with “failed”.
For the sequence “GLIDESEQRLVDNIFEFEEKKIREIMVPRTDMVCIYESDSEEKILAILKEEGVTRYPVCRKNKDDILGFVHIRDLYNQKINENKIELEEILRDIIYISENLTIDKALERIRKEKLQLAIVVDEYGGTSGVVTIEDILEEIVGEIQ”, the protein production entry is recorded as “not failed”.
In the case of “GLPAVDSEILEMPPEKADGVVEGIDVNGPKAQLMLRYPDGKREQITLPEQAKLLALVKHVQSKGYPNERFELLTNFPRRKLSHLDYDITLQEAGLCPQETVFVQERN”, the protein production entry is reported as “failed”.
With “GLPVAQSTTTLIDALRTHRMAVVQAPPGTGKTTLVPPIAHNVTGGRVIVVAPRRVAVRAAAHHLVQLDQSSCDQPSTHRVGYTIRGERSRGDLVEFVTPGVLLRRLISNPELDGVSAVVVDEVHERQLDTDLVLGMLVELRELRDDLTVIAMSAT”, the protein production result is given as “failed”.
Then “GLTTPLRELVENGFREGRIKIISSTPTLAAGLNLPARRVIIRSYRRYSSDSGMQPIPVLEYKQMAGRAGRPRLDPYGEAVLLAKSYEEFVFLFEKYIEAGAEDIWSKLGTENALRTHILSTISNGFA”, with “failed”; and “GMQGFFFNTRREIFKDKRVREALFYAFDFEWANKNLFFSQYKRTTSFFSNSIYASPPLPSPEEKALLAPYEKSLDERVFKEPYVVPRTDGVDVLGYNLRENLKYAQKLLESTGFSYKNMRLVDKNNKPFSFTLLLNSPAFERLALAFAKNLRVLGIEMKIQRVDLSQYVNRIKSYDFDMIVGVIGQSSFPGNEQRFYFGSLSAKEKGTRNYAGISSKAVDDLIEKIINAKDYKEQLAAIQAMDRVLLWGFYVIPHFYLP”, with “failed”.
Next, “GNQSTSSKGSDTKKEQITVKHQLDKNGTKVPKNPKKVVVFDFGSLDTLDKLGLDDIVAGLPKQVLPKYLSKFKDDKYADVGSLKEPDFDKVAELDPDLIIISARQSESYKEFSKIAPTIYLGVDTAKYMESFKSDAETIGKIFDKEDKVKDELANIDHSIADVKKTAEKLNKNGLVIMANDGKISAFGPKSRYGLIHDVFGVAPADQNIKASTHGQSVSYEYISKTNPDYLFVIDRGTAIGETSSTKQVVENDYVKNVNAVKNGHVIYLDSATWYLSGGGLESMTQMIKEVKDGLEK”: “not failed”; “GPGSMYRSRPEPVQGHLFTYYKDPYCKIPVFMMNMDARRCVLWVGGQTESLLSFDYFTNLAEELQGDWAFVQVEVPSGKIGSGPQDHAHDAEDVDDLIGILLRDHCMNEVALFATSTGTQLVFELLENSAHKSSITRVILHGVVCDPENPLFTPEGCAARKEHVEKLMAEGRGEDSLAMLKHYDIPITPARLAGGGFPTLQEAVWNPCIRKEFDVLRRSVGVIKVPLLLMLAHNVQYKPSDEEVGTVLEGVRDHTGCNRVTVSYFNDTCDELRRVLKAAESEHVAAILQFLADEDEFRTETEKNNRIKAAEDEKKRKSVLQVSSFAQAASSVKAS”: “not failed”.
Next, “GPLGSAMRELLLSDEYAEQKRAVNRFMLLLSTLYSLDAQAFAEATESLHGRTRVYFAADEQTLLKNGNQTKPKHVPGTPYWVITNTNTGRKCSMIEHIMQSMQFPAELIEKVCGTI”: “not failed”; “GPVPTPPDNIQVQENFNISRIYGKWYNLAIGSTCPWLKKIMDRMTVSTLVLGEGATEAEISMTSTRWRKGVCEETSGAYEKTDTDGKFLYHKSKWNITMESYVVHTNYDEYAIFLTKKFSRHHGPTITAKLYGRAPQLRETLLQDFRVVAQGVGIPEDSIFTMADRGECVPGEQEPEPILIPRV”: “not failed”.
“GQLAQDGVPEWFHGAISREDAENLLESQPLGSFLIRVSHSHVGYTLSYKAQSSCCHFMVKLLDDGTFMIPGEKVAHTSLDALVTFHQQKPIEPRRELLTQPCRQKD”: the protein production entry is on record as “not failed”.
Then “GQTAKLVSLRDISDRKRMENQLRENQNKYYRLLENLDNGVIVHNANAEIVYANPKAESFLGLTDLEGRDIDDEYWMFFDKEGEKLEKEEFPVAQVLANQSSLKNFEMGIYRPDTDQLLWAYINAYPEFYNE”, with “failed”.
Next, “GRDFAVDTKIETIGLTGSLSFKVNDNFSLGAGVIIQRTSGFVSQNLDLYASAANSPGMGGIPFPASNSSALMRVKVDNTSPGFFAGAVWKPTDRDTLGFAYHAKIRNKLKGHYNLYDHDGGLTEGAIEGGTPGLAYPGLDLRMGASASARLDIPAYASLDWVHQFNDRLSLGASATWTEWSSFQDLTLKSHGNTIVSIPYTYRNTWTLAVGGDYKVTDQWTMRAGVAYDQTPTHNATRDPRIPDGDRYFASLGAGYRFQSMPELSIDAAYSRQFVKEVPLKTV”: “failed”.
Then “GSHFYFLSKRRRNLLRNPCGEEDLEGWSDVEHGGDGWKVEELPGDNGVEFTQDDSVKKYFASSFEWCRKAQVIDLQAEGYWEELLDTTQPAIVVKDWYSGRTDAGSLYELTVRLLSENEDVLAEFATGQVAVPEDGSWMEISHTFIDYGPGVRFVRFEHGGQDSVYWKGWFGARVTNSSVWVEP”, with “not failed”; and “GSHMDKTFCVVVQNRIKEGYRRAGFSFHLGDNSLAAVSESQLAQLKADPRLVVQITETGSQEGGEGLSKEPAGSDEQKQLRADPPSTDLNTFTVEQLKAQLTERGITFKQSATKAELIALFAPADGEKSEA”, with “not failed”.
